Experimental data as given in FireProtDB (doi:10.1021/bi9621829).

B1: Lysozyme C, P61626 (parent)
chain: MKALIVLGLVLLSVTVQGKVFERCELARTLKRLGMDGYRGISLANWMCLAKWESGYNTRATNYNAGDRSTDYGIFQINSRYWCNDGKTPGAVNACHLSCSALLQDNIADAVACAKRVVRDPQGIRAWVAWRNRCQNRDVRQYVQGCGV

Variants of: B1
Conditions: Homo sapiens, pH 2.7, Thermal, DSC, glycine 0.05 M, reversible: yes, structure 1LZ1, whole UniProt chain shown

Variant | Tm [°C] | change of melting temperature, mutant - wild type (higher = more stable) [°C] | heat capacity change of unfolding [kcal/mol/K] | unfolding enthalpy (calorimetric) [kcal/mol] | unfolding enthalpy (van 't Hoff) [kcal/mol] | ddG of mutation (higher = less stable) (64.9 °C) [kcal/mol] | heat capacity change of unfolding (64.9 °C) [kcal/mol/K]
MKALIVLGLVLLSVTVQGKVFERCELARTLKRLGMDGYRGISLANWMCLAKWESGYNTRATNYNAGDRSTDYGIFQINSRYWCNDGKTPGAVNACHLSCSALLQDNIADAAACAKRVVRDPQGIRAWVAWRNRCQNRDVRQYVQGCGV | 62.6 | -2.3 | 1.53 | 112 | 120 |  | 
MKALIVLGLVLLSVTVQGKVFERCELARTLKRLGMDGYRGISLANWMCLAKWESGYNTRATNYNAGDRSTDYGIFQINSRYWCNDGKTPGAVNACHLSCSALLQDNIADAVACAKRAVRDPQGIRAWVAWRNRCQNRDVRQYVQGCGV | 61.9 | -3 | 1.58 | 111 | 117 | 0.98 | 1.58
MKALIVLGLVLLSVTVQGKVFERCELARTLKRLGMDGYRGISLANWMCLAKWESGYNTRATNYNAGDRSTDYGIFQINSRYWCNDGKTPGAANACHLSCSALLQDNIADAVACAKRVVRDPQGIRAWVAWRNRCQNRDVRQYVQGCGV | 63.8 | -1.1 | 1.48 | 114 | 120 | 0.36 | 1.48
MKALIVLGLVLLSVTVQGKVFERCELARTLKRLGMDGYRGISLANWMCLAKWESGYNTRATNYNAGDRSTDYGIFQINSRYWCNDGKTPGAVNACHLSCSALLQDNIADAVACAKRVARDPQGIRAWVAWRNRCQNRDVRQYVQGCGV | 64.1 | -0.8 | 1 | 110 | 120 | 0.26 | 1
MKALIVLGLVLLSVTVQGKVFERCELARTLKRLGMDGYRGISLANWMCLAKWESGYNTRATNYNAGDRSTDYGIFQINSRYWCNDGKTPGAVNACHLSCSALLQDNIADAVACAKRVVRDPQGIRAWVAWRNRCQNRDARQYVQGCGV | 60.4 | -4.5 | 1.53 | 110 | 112 | 1.44 | 1.53
MKALIVLGLVLLSVTVQGKVFERCELARTLKRLGMDGYRGISLANWMCLAKWESGYNTRATNYNAGDRSTDYGIFQINSRYWCNDGKTPGAVNACHLSCSALLQDNIADAVACAKRVVRDPQGIRAWVAWRNRCQNRDVRQYVQGCGA | 62.3 | -2.6 | 1.51 | 111 | 119 | 0.84 | 1.51
MKALIVLGLVLLSVTVQGKAFERCELARTLKRLGMDGYRGISLANWMCLAKWESGYNTRATNYNAGDRSTDYGIFQINSRYWCNDGKTPGAVNACHLSCSALLQDNIADAVACAKRVVRDPQGIRAWVAWRNRCQNRDVRQYVQGCGV | 60.3 | -4.6 | 1.56 | 112 | 114 | 1.51 | 1.56
MKALIVLGLVLLSVTVQGKVFERCELARTLKRLGMDGYRGISLANWMCLAKWESGYNTRATNYNAGDRSTDYGIFQINSRYWCNDGKTPGAVNACHLSCSALLQDNIADAVACAKRVVRDPQGIRAWVAWRNRCQNRDVRQYAQGCGV | 60.9 | -4 | 1.29 | 113 | 116 | 1.32 | 1.29
MKALIVLGLVLLSVTVQGKVFERCELARTLKRLGMDGYRGISLANWMCLAKWESGYNTRATNYNAGDRSTDYGIFQINSRYWCNDGKTPGAVNACHLSCSALLQDNIADAVACAKRVVRDPQGIRAWAAWRNRCQNRDVRQYVQGCGV | 66.4 | 1.5 | 1.24 | 116 | 122 | -0.53 | 1.24
